Source: publication PMC7737771, “In‐depth interrogation of protein thermal unfolding data with MoltenProt” (Protein Science : A Publication of the Protein Society, 2020)

B1: α‐actinin‐2 rod domain (domain or fragment, UniProt P35609 274-746, looked up)
chain: AVNQENERLMEEYERLASELLEWIRRTIPWLENRTPEKTMQAMQKKLEDFRDYRRKHKPPKVQEKCQLEINFNTLQTKLRISNRPAFMPSEGKMVSDIAGAWQRLEQAEKGYEEWLLNEIRRLERLEHLAEKFRQKASTHETWAYGKEQILLQKDYESASLTEVRALLRKHEAFESDLAAHQDRVEQIAAIAQELNELDYHDAVNVNDRCQKICDQWDRLGTLTQKRREALERMEKLLETIDQLHLEFAKRAAPFNNWMEGAMEDLQDMFIVHSIEEIQSLITAHEQFKATLPEADGERQSIMAIQNEVEKVIQSYNIRISSSNPYSTVTMDELRTKWDKVKQLVPIRDQSLQEELARQHANERLRRQFAAQANAIGPWIQNKMEEIARSSIQITGALEDQMNQLKQYEHNIINYKNNIDKLEGDHQLIQEALVFDNKHTNYTMEHIRVGWELLLTTIARTINEVETQILTRD
notes: α-actinin-2, rod domain, residues 274-746; Detailed purification protocols are to be published elsewhere (Mlynek et al., in preparation); PDB 4D1E is the longer α-actinin-2 dimer, of which the rod domain is a stretch; also called rod domain of α‐actinin‐2

How the values were obtained:
[1] = biological target: the molecule itself; test: SEC-MALS; Superdex‐200 10/300 Increase; 20 mM Tris–HCl pH 7.5, 100 mM NaCl, 50 mM arginine, 50 mM glutamic acid, 0.5 mM PMSF, 1 mM EDTA, 1 mM β‐mercaptoethanol; 100 μl injected at 2-4 mg/ml; 20°C; 0.5 ml/min
α‐actinin‐2 rod domain [2] = biological target: B1; test: as above; details: both partners purified
α‐actinin‐2 rod domain [3] = biological target: B1; test: cell-based or functional assay

stoichiometry N (α‐actinin‐2 rod domain [2])	ΔGu°′ of the complex against ΔGu°′ of the rod domain alone, thermal unfolding (NanoDSF) (α‐actinin‐2 rod domain [3])	Binder	stoichiometry N [1]
–	–	B1	2
2 Δ91‐FATZ‐1 molecules per rod domain dimer	~2 fold	Δ91‐FATZ‐1 (domain or fragment, UniProt Q9NP98 92-299, looked up, FATZ-1 (calsarcin-2/myozenin-1) with a deletion of the 91 N-terminal residues; Detailed purification protocols are to be published elsewhere (Mlynek et al., in preparation); also called FATZ‐1 lacking the first 91 residues; calsarcin‐2) PTVGGQLGTAGQGFSYSKSNGRGGSQAGGSGSAGQYGSDQQHHLGSGSGAGGTGGPAGQAGRGGAAGTAGVGETGSGDQAGGEGKHITVFKTYISPWERAMGVDPQQKMELGIDLLAYGAKAELPKYKSFNRTAMPYGGYEKASKRMTFQMPKFDLGPLLSEPLVLYNQNLSNRPSFNRTPIPWLSSGEPVDYNVDIGIPLDGETEEL	–
